Experimental data from the supplement of paper PMC9170038.

Test system: K4 kissing-loop RNA reporter
Assay: apparent KD of K4 kissing-loop reporter; higher = weaker reporter binding
Details: Eterna round: R107
Protocol: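 RNA-MaP round R107: designed RNA switches with theophylline, tryptophan, arginine or FMN aptamers are transcribed on-chip within common flanks. They are titrated with a labelled K4 kissing-loop RNA reporter in RNA-MaP buffer (100 mM Tris pH 7.5, 80 mM KCl, 4 mM MgCl2), without ligand or with the indicated ligand. Median apparent KD per design.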

[1] = input ligand: theophylline 20 uM
[2] = input ligand: tryptophan 2.4 mM
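Also: bound reporter read as fluorescence of individual clusters on recovered sequencing chips by microscopy, with normalized cluster intensities fitted with a binding model.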

Sequence	apparent KD of K4 kissing-loop reporter (input ligand: FMN 200 uM) [nM]	apparent KD of K4 kissing-loop reporter (input ligand: arginine 13.2 mM) [nM]	apparent KD of K4 kissing-loop reporter (input ligand: none) [nM]	apparent KD of K4 kissing-loop reporter [1] [nM]	apparent KD of K4 kissing-loop reporter [2] [nM]
GAGGUACAGGCGGCCGCCACUAGUGAUGUUAGUGAUAAAAGAUAUAGUAAAUAUCGGCAUGUAGAUAGGACCGGGCCUGAUGGAG [ptvcmullin]	234	214	234	234	209
GAGGUACAGGCGGCCGCCACUAGUGAUGUUAGUGAUAGAAGAUAUAGUAAAUAUCGGCAUUUAGAUAGGACCGGGCCUGGUGGUG [ffdfcmullin]	296	242	271	286	275
GAGUUUCGUAAAGGAUAUUCUAGCUAAAGCCAUUAGUGAUGUUGAUGUACGGACGGAAGCCUGGCAGAAGAAGGUUAACAGGAUU [theeternabot_sameState_KL_FMN_B_24]	708	326	410	420	312
GAUACGUCAGUGAUGUUGAUGUAUUACACAGAGGAUAUCGUAAUGACGAGAAGGCUGAGCCAUCUAGAGAUACGUAAGACGUAUC [FMN A SS t5]	154	196	184	188	205
GAUCUAUGUCCCGAUACCAGCUCAGAAGCUAGGGAGUGAUGUUCUCGGAGGUUAUCACUGAGCCCUUGGCAGCGGAACGUGACGA [theeternabot_sameState_KL_Theo_B_26]	227	182	239	230	218
GAUGAUCGCGCGGCCGCCACUGGUCAGUGAUGUUGACAUUAAGGCGCCGAGUAGUAACGGCGCCACAGGACCGGGCGCGAUGUAG [First Shot]	135	155	156	126	176
GAUGCAUAUUCCUGGAGGAAGAUGGUUAAGAAGGAUAUCAAAGCCGUGAGAAGGUCUAAACCUAAUAGUCGAGUGAUGUUCGACC [theeternabot_sameState_KL_FMN_A_35]	231	309	356	428	278
GAUGUCUAGAGAUCAUCUAGACACCUAGAUACCAGCAGAUAUAUCUGCCCUUGGCAGCUAGAACCAGUGAUGUUGGUAUAUGCUC [Theo A SS t3]	259	256	307	360	229
GAUUCAGUGAUGUUGGAAGGCGAGCGGGAUACCAGCCGAGACUCAGGCCCUUGGCAGCCCACAUAUCCCAGGUAGAUAGUCGCUC [Same State - Theophylline A (Freestyle 10)]	343	266	325	383	265
GAUUUAGAGGCGGCCGCCACUAGUGAUGUUAGUGAUGUUUGAUACUGAAUAUAUCGGCGUGUAGAUAGGACCGGGCCAGAUGGAG [zwqqmullin]	221	179	218	211	203
GCACUGAAGUGAUGUUUUUGUGCACGUUGAAAGGAUAUCUGCUUGUAGAGAAGGUUCUGUUUGUGCGGAGCGGGCGUUACCGGCA [theeternabot_exclusion_KL_FMN_A_32]	307	269	310	285	308
GCACUUCUCAGUGAUGUUGAGUAAUCGGAAGGAGCGCGUGAAAACGCAGGUAGGUCGCCGAUACAUGAAGUAUCUUCGUGUGUGC [Arginine A K4 25]	306	235	295	279	216
GCAGGACGAGGAGGAGGAUGAAUUACUGAAGGAGCGCAUAUUUUUGCAGGUAGGUCGCGGUAAAGAAGUAUAGUGAUGUUAUAUA [SSArgA.L]	482	476	470	406	408
GCAGUCAAUCGACCACGAAAGUGGAUGGAUACCAGCCCGAAACCGGGCCCUUGGCAGCCAGUGAUGUUGGAAGACUGCUUUAAAA [#SwitchBubble 14 #K4Late]	371	372	548	216	660
GCAGUGAUGUUGCAACCGCGUACGAUGCCUCGAGGACCGGUACGGCCGCCACUCGUCCUGGUUCAGGAGCUACAGACAUAGCUCA [theeternabot_sameState_KL_Trp_A_2]	563	271	781	408	291
GCAGUGAUGUUGCGCAGGUACAGUGGAGUGCGAGGACCGGUACGGCCGCCACUCGUACAGAACUAGCUAAUGUAUGGAUAGGUGA [#11 K4 Tryptophan A Same State]	354	329	368	470	312
GCAGUGAUGUUGCGCGGGUACAGUGGAGUGCGAGGACCGGUACGGCCGCCACUCGUACAGAACUGGCUAAUAUAUGGAUAGGUGA [VII]	271	169	305	169	210
